Source: article PMC11009412, “Pathogenic mutations of human phosphorylation sites affect protein–protein interactions” (Nature Communications, 2024)

Tests used:
GRB2 = GRB2 (UniProt P62993); assay: PRISMA peptide-membrane pull-down, SILAC MS; conditions: reference: unphosphorylated wild-type peptide; sites Y1092
PLCG1 = PLCG1 (UniProt P19174); assay: PRISMA peptide-membrane pull-down, SILAC MS; conditions: reference: unphosphorylated wild-type peptide; sites Y1092
STAT3 = STAT3 (UniProt P40763); assay: PRISMA peptide-membrane pull-down, SILAC MS; conditions: reference: unphosphorylated wild-type peptide; sites Y1092
[1] = biological target: 14-3-3 beta/alpha (YWHAB) (UniProt P31946); assay: PRISMA alanine-scan pull-down, LFQ MS; conditions: reference: unphosphorylated wild-type peptide; sites S102
14-3-3 epsilon (YWHAE) [2] = biological target: 14-3-3 epsilon (YWHAE) (UniProt P62258); assay: PRISMA alanine-scan pull-down, LFQ MS; conditions: reference: unphosphorylated wild-type peptide; sites S102
14-3-3 eta (YWHAH) = 14-3-3 eta (YWHAH) (UniProt Q04917); assay: PRISMA alanine-scan pull-down, LFQ MS; conditions: reference: unphosphorylated wild-type peptide; sites S102
14-3-3 gamma = 14-3-3 gamma (UniProt P61981); assay: PRISMA alanine-scan pull-down, LFQ MS; conditions: reference: unphosphorylated wild-type peptide; sites S102
14-3-3 theta (YWHAQ) = 14-3-3 theta (YWHAQ) (UniProt P27348); assay: PRISMA alanine-scan pull-down, LFQ MS; conditions: reference: unphosphorylated wild-type peptide; sites S102
14-3-3 zeta (YWHAZ) = 14-3-3 zeta (YWHAZ) (UniProt P63104); assay: PRISMA alanine-scan pull-down, LFQ MS; conditions: reference: unphosphorylated wild-type peptide; sites S102
14-3-3 epsilon (YWHAE) [3] = biological target: 14-3-3 epsilon (YWHAE) (UniProt P62258); assay: ITC; PEAQ-ITC, 18 °C, 400 µM peptide in the syringe, 25 µM 14-3-3ε in the reaction chamber; 20 mM HEPES pH 7.0, 150 mM NaCl, 2 mM DTT

Substance: EGFR (from UniProt P00533) pTyr1092 peptide
- other: SILAC ratio phos/wt (GRB2): > 20
- binding against the reference (PLCG1): stronger
- binding against the reference (STAT3): stronger

Substance: GATAD1 (from UniProt Q8WUU5) pS102 peptide
- binding against the reference [1]: stronger
- binding against the reference (14-3-3 epsilon (YWHAE) [2]): stronger
- binding against the reference (14-3-3 eta (YWHAH)): stronger
- binding against the reference (14-3-3 gamma): stronger
- binding against the reference (14-3-3 theta (YWHAQ)): stronger
- binding against the reference (14-3-3 zeta (YWHAZ)): stronger

Substance: GATAD1 phosphopeptide 95-LRNTKYKpSAPAAEKK-109
- Kd (14-3-3 epsilon (YWHAE) [3]): 3.4 µM
